From publication PMC10266979

Tests used:
[1] = target: neuraminidase (N1) of influenza A virus A/Hawaii/66/2019 (H1N1) (influenza A virus A/Hawaii/66/2019 (H1N1))
[2] = target: neuraminidase (N1) of influenza A virus A/Idaho/07/2018 (H1N1) (influenza A virus A/Idaho/07/2018 (H1N1))
[3] = target: neuraminidase (N1) of influenza A virus A/Illinois/45/2019 (H1N1) (influenza A virus A/Illinois/45/2019 (H1N1))
[4] = target: neuraminidase (N1) of influenza A virus A/Michigan/45/2015 (H1N1) (influenza A virus A/Michigan/45/2015 (H1N1))
[5] = target: neuraminidase (N1) of influenza A virus A/Puerto Rico/1934 (H1N1) (influenza A virus A/Puerto Rico/8/34 (H1N1)) (UniProt P03468)
[6] = target: neuraminidase (N1) of influenza A virus A/Victoria/2570/2019 (H1N1) (influenza A virus A/Victoria/2570/2019 (H1N1))
[7] = target: neuraminidase (N2) of influenza A virus A/Cambodia/E0826360/2020 (H3N2) (influenza A virus A/Cambodia/E0826360/2020 (H3N2))
[8] = target: neuraminidase (N2) of influenza A virus A/Darwin/6/2021 (H3N2) (influenza A virus A/Darwin/6/2021 (H3N2))
[9] = target: neuraminidase (N2) of influenza A virus A/HongKong/4801/2014 (H3N2) (influenza A virus A/HongKong/4801/2014 (H3N2))
[10] = target: neuraminidase (N2) of influenza A virus A/Kansas/14/2017 (H3N2) (influenza A virus A/Kansas/14/2017 (H3N2))
[11] = target: neuraminidase (N2) of influenza A virus A/Michigan/173/2020 (H3N2) (influenza A virus A/Michigan/173/2020 (H3N2))
[12] = target: neuraminidase (N2) of influenza A virus A/SouthAustralia/34/2019 (H3N2) (influenza A virus A/SouthAustralia/34/2019 (H3N2))
[13] = target: neuraminidase (N2) of influenza A virus A/Tasmania/503/2020 (H3N2) (influenza A virus A/Tasmania/503/2020 (H3N2))
[14] = target: neuraminidase (N2) of influenza A virus A/Victoria/361/2011 (H3N2) (influenza A virus A/Victoria/361/2011 (H3N2))
[15] = target: neuraminidase of influenza B virus B/Brisbane/35/2018 (Victoria) (influenza B virus B/Brisbane/35/2018 (Victoria))
[16] = target: neuraminidase of influenza B virus B/Brisbane/60/2008 (Victoria) (influenza B virus B/Brisbane/60/2008 (Victoria))
[17] = target: neuraminidase of influenza B virus B/Colorado/6/2017 (Victoria) (influenza B virus B/Colorado/6/2017 (Victoria))
[18] = target: neuraminidase of influenza B virus B/Laos/0080/2016 (Victoria) (influenza B virus B/Laos/0080/2016 (Victoria))
[19] = target: neuraminidase of influenza B virus B/Phuket/3073/2013 (Yamagata) (influenza B virus B/Phuket/3073/2013 (Yamagata))
[20] = target: neuraminidase of influenza B virus B/Texas/6/2011 (Yamagata) (influenza B virus B/Texas/6/2011 (Yamagata))
[21] = target: neuraminidase of influenza B virus B/Utah/9/2014 (Yamagata) (influenza B virus B/Utah/9/2014 (Yamagata))
[22] = target: neuraminidase of influenza B virus B/Washington/02/2019 (Victoria) (influenza B virus B/Washington/02/2019 (Victoria))
[23] = target: recombinant N2 NA A/Hong Kong/2671/2019 (N245 glycan) (influenza A virus H3N2 A/Hong Kong/2671/2019)
[24] = target: recombinant N2 NA A/Hong Kong/2671/2019 (N245 glycan) (influenza A virus H3N2 A/Hong Kong/2671/2019); assay: SPR
[25] = target: neuraminidase of influenza B virus B/Lee/1940 (Ancestral) (influenza B virus B/Lee/1940 (Ancestral)) (UniProt P03474)
Chain of UniProt P03474 (P03474 whole entry): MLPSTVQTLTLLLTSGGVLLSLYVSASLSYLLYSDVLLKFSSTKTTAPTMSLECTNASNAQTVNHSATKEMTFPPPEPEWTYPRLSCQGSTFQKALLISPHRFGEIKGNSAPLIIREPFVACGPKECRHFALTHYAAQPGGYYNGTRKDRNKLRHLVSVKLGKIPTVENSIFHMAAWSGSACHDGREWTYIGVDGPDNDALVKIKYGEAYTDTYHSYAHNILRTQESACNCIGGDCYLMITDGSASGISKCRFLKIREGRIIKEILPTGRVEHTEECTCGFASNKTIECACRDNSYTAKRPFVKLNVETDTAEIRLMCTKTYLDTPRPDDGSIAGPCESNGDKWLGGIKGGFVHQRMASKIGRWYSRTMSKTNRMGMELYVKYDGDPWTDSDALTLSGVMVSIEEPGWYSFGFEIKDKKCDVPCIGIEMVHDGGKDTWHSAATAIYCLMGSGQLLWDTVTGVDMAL

| Substance | In vitro neutralization IC50; virus A/Hawaii/66/2019 (H1N1); mAb as IgG [1] [µg/mL] | In vitro neutralization IC50; virus A/Idaho/07/2018 (H1N1); mAb as IgG [2] [µg/mL] | In vitro neutralization IC50; virus A/Illinois/45/2019 (H1N1); mAb as IgG [3] [µg/mL] | In vitro neutralization IC50; virus A/Michigan/45/2015 (H1N1); mAb as IgG [4] [µg/mL] | In vitro neutralization IC50; virus A/Puerto Rico/1934 (H1N1); mAb as IgG [5] [µg/mL] | In vitro neutralization IC50; virus A/Victoria/2570/2019 (H1N1); mAb as IgG [6] [µg/mL] | In vitro neutralization IC50; virus A/Cambodia/E0826360/2020 (H3N2); mAb as IgG [7] [µg/mL] | In vitro neutralization IC50; virus A/Darwin/6/2021 (H3N2); mAb as IgG [8] [µg/mL] | In vitro neutralization IC50; virus A/HongKong/4801/2014 (H3N2); mAb as IgG [9] [µg/mL] | In vitro neutralization IC50; virus A/Kansas/14/2017 (H3N2); mAb as IgG [10] [µg/mL] | In vitro neutralization IC50; virus A/Michigan/173/2020 (H3N2); mAb as IgG [11] [µg/mL] | In vitro neutralization IC50; virus A/SouthAustralia/34/2019 (H3N2); mAb as IgG [12] [µg/mL] | In vitro neutralization IC50; virus A/Tasmania/503/2020 (H3N2); mAb as IgG [13] [µg/mL] | In vitro neutralization IC50; virus A/Victoria/361/2011 (H3N2); mAb as IgG [14] [µg/mL] | In vitro neutralization IC50; virus B/Brisbane/35/2018 (Victoria); mAb as IgG [15] [µg/mL] | In vitro neutralization IC50; virus B/Brisbane/60/2008 (Victoria); mAb as IgG [16] [µg/mL] | In vitro neutralization IC50; virus B/Colorado/6/2017 (Victoria); mAb as IgG [17] [µg/mL] | In vitro neutralization IC50; virus B/Laos/0080/2016 (Victoria); mAb as IgG [18] [µg/mL] | In vitro neutralization IC50; virus B/Phuket/3073/2013 (Yamagata); mAb as IgG [19] [µg/mL] | In vitro neutralization IC50; virus B/Texas/6/2011 (Yamagata); mAb as IgG [20] [µg/mL] | other results |
| --- | --- | --- | --- | --- | --- | --- | --- | --- | --- | --- | --- | --- | --- | --- | --- | --- | --- | --- | --- | --- | --- |
| 1G01 Fab | 0.306 | 0.293 | 0.673 | 0.57 | 4.81 | 15.1 | 18.6 | > 50 | 0.058 | 4.52 | 6.2 | 4.4 | 26.1 | 0.039 | > 50 | > 50 | 1.63 | 13.5 | > 50 | > 50 | In vitro neutralization IC50; virus B/Utah/9/2014 (Yamagata); mAb as IgG [21]: > 50 µg/mL; In vitro neutralization IC50; virus B/Washington/02/2019 (Victoria); mAb as IgG [22]: 5.61 µg/mL; In vitro neutralization IC50; virus A/HongKong/2671/2019 (H3N2); mAb as IgG [23]: 21.5 µg/mL; Kd [24]: 375 nM |
| FNI9 Fab | 0.039 | 0.079 | 0.243 | 0.151 | 0.028 | 0.168 | 1.61 | 1.13 | 0.022 | 0.284 | 3.09 | 0.76 | 2.01 | 0.082 | 0.026 | 1.16 | 0.669 | 0.047 | 0.193 | 0.104 | In vitro neutralization IC50; virus B/Lee/1940 (Ancestral); mAb as IgG [25]: 0.051 µg/mL; In vitro neutralization IC50; virus B/Utah/9/2014 (Yamagata); mAb as IgG [21]: 0.245 µg/mL; In vitro neutralization IC50; virus B/Washington/02/2019 (Victoria); mAb as IgG [22]: 0.031 µg/mL; In vitro neutralization IC50; virus A/HongKong/2671/2019 (H3N2); mAb as IgG [23]: 0.073 µg/mL; Kd [24]: 16 nM |
